Here are results for one molecule from patent publication US20250297030A1 (SHANDONG SIMCERE BIOPHARMACEUTICAL, published 2025).

Assay [1] deals with T1, Cyno MUC17 ECD3577-his (His-tagged cynomolgus monkey MUC17 protein extracellular domain fusion protein) (cynomolgus monkey).
T1 construct: also called monkey MUC17-his protein; monkey MUC17 ECD3577-His
T1 chain: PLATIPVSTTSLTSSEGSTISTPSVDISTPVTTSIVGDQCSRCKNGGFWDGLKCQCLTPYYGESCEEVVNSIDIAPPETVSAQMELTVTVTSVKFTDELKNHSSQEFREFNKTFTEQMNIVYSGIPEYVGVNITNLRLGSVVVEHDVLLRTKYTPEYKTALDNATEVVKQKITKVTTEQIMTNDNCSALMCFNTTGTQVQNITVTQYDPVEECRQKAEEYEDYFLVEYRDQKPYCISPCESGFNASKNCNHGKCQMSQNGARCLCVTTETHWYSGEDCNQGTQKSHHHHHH
Kind of assay: ELISA on coated monkey MUC17 ECD3577-His, OD450. The method, then:
(§1) To assay the binding activity of the humanized antibodies with the monkey MUC17-his protein, the monkey MUC17-his protein was diluted with PBS to a final concentration of […] and subjected to ELISA assay and data analysis according to the method described in Example 3.3. The humanized antibodies SCR-7724, SCR-7782, SCR-7783, SCR-7784, and SCR-7785 have cross-binding activity with the monkey MUC17 protein, maintaining the binding ability of the recombinant antibody.
Background: An ELISA detects its analyte on a solid surface through an enzyme-linked reagent.

Assay [2] has as its target T2, human MUC17 on NUGC4 endogenous tumor cells (human, UniProt Q685J3 26-4493). As to the kind of experiment: FACS on NUGC4 cells, MFI. As for the experimental part: (§2) Then a complete medium was added to stop the digestion, and the cells were blown into a single cell suspension. After counting, the cells were centrifuged, and the cell pellet was resuspended to 2×10⁶ cells/mL in an FACS buffer (PBS+2% fetal bovine serum), and added to a 96-well FACS reaction plate at 100 µL/well. The plate was centrifuged, and the supernatant was discarded. An antibody sample to be tested (diluted in a 3-fold gradient from a starting concentration of 100 nM) was added at 50 µL/well and uniformly mixed with the cells, and the mixture was incubated at 4° C. for 1 h. […] The results were tested and analyzed by FACS (FACS Canto™, purchased from BD) after the plate was centrifuged and washed 3 times with a PBS buffer and resuspended with 100 μL of PBS. Data analysis was performed by software (FlowJo) to obtain the mean fluorescence intensity (MFI) of the cells. Then, analysis was performed by software (GraphPad Prism8), data were fitted, and EC50 values were calculated. As shown in FIGS. 3A-3B, the recombinant antibodies Lab315-huFc, Lab316-huFc, Lab320-huFc, Lab331-huFc, and Lab332-huFc are all capable of binding specifically to NUGC-4 cells.
(§3) The preparation of the assay cells and the antibodies to be tested and the assay were performed with reference to Example 3.4. […]

Assay [3] addresses T3, monkey MUC17 fragment on FlpinCHO-Cyno(3597-3964)-D2 cells (monkey).
T3 chain: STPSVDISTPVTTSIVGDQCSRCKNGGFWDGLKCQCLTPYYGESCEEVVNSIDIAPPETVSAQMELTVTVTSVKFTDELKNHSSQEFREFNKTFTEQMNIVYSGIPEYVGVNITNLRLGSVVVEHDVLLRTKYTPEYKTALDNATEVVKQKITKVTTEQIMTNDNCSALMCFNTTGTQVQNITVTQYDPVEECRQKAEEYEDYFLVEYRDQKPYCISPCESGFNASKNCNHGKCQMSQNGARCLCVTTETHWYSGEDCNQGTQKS
Kind of assay: FACS on FlpinCHO-Cyno(3597-3964)-D2 cells, MFI.

The target of assay [4] is T2, human MUC17 on NUGC4 endogenous tumor …. As to the kind of experiment: FACS on NUGC4 cells, MFI. The method, then: as §2
The source holds these as a separate data set.

Assay [5] concerns the target T1, Cyno MUC17 ECD3577-his (His-tagged …). As to the kind of experiment: ELISA on coated monkey MUC17 ECD3577-His, OD450. As for the experimental part:
as §1

Assay [6] addresses T2, human MUC17 on NUGC4 endogenous tumor …. As to the kind of experiment: FACS on NUGC4 cells, MFI. As for the experimental part: as §2, §3
This is another data set of the same source.

Assay [7] addresses T4, Human MUC17 ECD4131-his (His-tagged human MUC17 protein extracellular domain fusion protein) (human, UniProt Q685J3 4131-4393).
T4 construct: a truncation of the extracellular domain; also called human MUC17-his protein; human MUC17-His
Kind of assay: ELISA on coated human MUC17 ECD4131-his, OD450. As for the experimental part:
A human MUC17-his protein was diluted with PBS to a final concentration of […] and then added to a 96-well ELISA plate at 50 µL/well. The plate was incubated at 4° C. overnight. The next day, the plate was washed 2 times with PBST, and a blocking buffer [PBS+2% (w/w) BSA] was added for blocking at room temperature for 2 h. The blocking buffer was discarded, and the recombinant antibody and positive and negative control antibody with a starting concentration of 100 nM serially diluted by 3 folds were added at 50 μL/well. After incubation at 37° C. for 1 h, the plate was washed 3 times with PBST. A horseradish peroxidase (HRP)-labeled secondary antibody (purchased from Merck, Cat. No. AP113P) was added for incubation at 37° C. for 1 h, and the plate was washed 5 times with PBST. A TMB substrate was added at 50 μL/well for incubation at room temperature for 10 min, and then a stop solution (1.0 M HCl) was added at 50 µL/well. The OD₄₅₀ nm values were read by an ELISA plate reader (Multimode Plate Reader, EnSight, purchased from Perkin Elmer).

Assay [8] addresses T4, Human MUC17 ECD4131-his (His-tagged …). Kind of assay: ELISA on coated human MUC17 ECD4131-his, OD450. This is another data set of the same source.
The target is the same in assay [9]. As to the kind of experiment: ELISA on coated human MUC17 ECD4131-his, OD450. This is another data set of the same source.
Assay [10] deals with T2, human MUC17 on NUGC4 endogenous tumor …. As to the kind of experiment: FACS on NUGC4 cells, MFI. The method, then: as §2, §3
This is another data set of the same source.

Where two headings read alike, the source gives them in different places.

B1: 2D11-hIgG1 (antibody, V domains shown)
VH: QVQLVESGGGVVQPGRSLRLSCAASGFTFSNHGMHWVRQAPGKCLEWVAGIWSDASNKYYAEAVKGRFTISRDTSKNTLYLQMNSLRAEDTAVYYCARATYTTGWSYFDYWGQGTLVTVSS
VL: SYELTQSPSVSVSPGQTASITCSGDKLGDKYTSWYQQKPGQSPVLVIYHDRKRPSGIPERFSGSNSGNTATLTISGTQAMDEADYYCQAYDRSTAWVFGCGTKLTVLR
notes: Control antibody from WO2019133961A1, expressed as human IgG1 + kappa; also called 21D11; MUC17 control antibody
For B1, the “EC50 (read off the curve)” value in assay [1] is roughly 0.05 nM; in [2], roughly 0.1 nM; in [3], roughly 0.4 nM; in [4] it was roughly 0.1 nM; in assay [5], roughly 0.04 nM; in assay [6], roughly 0.05 nM. The “EC50 (read off the curve)” value in [7] was roughly 0.02 nM; in assay [8] it was roughly 0.02 nM; in assay [9], roughly 6 pM; in assay [10], roughly 0.1 nM.

What is called EC50 (read off the curve) is the concentration needed to bring the measured effect to its halfway point.
